Patent publication EP4803547A1 (Biontech (Zhuhai) Pharmaceuticals R&D Co., Ltd, dated 2026)

Assays:
[1] = target: human PD-1 protein (human, UniProt Q15116 25-167, limits assumed); test: BLI (ForteBio), antibody on AHQ sensor, 100 nM antigen, 1:1 model
[2] = target: human CD40 protein (human, UniProt P25942 21-193, limits assumed); test: as above
[3] = target: T1, human CD40 on cells (human, UniProt P25942 21-277); test: flow cytometry on CHO-hCD40 cells, anti-human IgG-Fc PE
T1 construct: whole, on cells; One molecule is used for human CD40 on the three cell types; also called CHO-hCD40; CHO-S cells overexpressing human CD40

[4] = target: T2, human PD-1 on cells (human, UniProt Q15116 25-288); test: flow cytometry on CHO-hPD-1 cells, anti-human IgG-Fc PE
T2 construct: whole, on cells; also called CHO-hPD-1; CHO-S cells overexpressing human PD-1
T2 sequence (Q15116 25-288): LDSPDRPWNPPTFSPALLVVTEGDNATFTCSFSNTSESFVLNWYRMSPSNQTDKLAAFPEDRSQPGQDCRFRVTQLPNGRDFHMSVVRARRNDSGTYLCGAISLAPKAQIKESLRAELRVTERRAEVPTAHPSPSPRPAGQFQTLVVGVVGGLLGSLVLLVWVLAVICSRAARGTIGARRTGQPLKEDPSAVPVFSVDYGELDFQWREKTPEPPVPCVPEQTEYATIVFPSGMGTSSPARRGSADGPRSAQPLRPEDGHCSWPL

T1 sequence (P25942 21-277): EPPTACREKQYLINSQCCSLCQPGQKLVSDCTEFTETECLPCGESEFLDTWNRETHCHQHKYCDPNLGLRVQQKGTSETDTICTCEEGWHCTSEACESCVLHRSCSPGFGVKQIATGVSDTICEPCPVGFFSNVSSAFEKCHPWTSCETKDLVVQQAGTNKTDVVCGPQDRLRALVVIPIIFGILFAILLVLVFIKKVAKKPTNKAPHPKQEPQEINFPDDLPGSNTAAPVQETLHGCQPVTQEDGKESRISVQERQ
Sequence of human CD40 protein (P25942 21-193 limits assumed): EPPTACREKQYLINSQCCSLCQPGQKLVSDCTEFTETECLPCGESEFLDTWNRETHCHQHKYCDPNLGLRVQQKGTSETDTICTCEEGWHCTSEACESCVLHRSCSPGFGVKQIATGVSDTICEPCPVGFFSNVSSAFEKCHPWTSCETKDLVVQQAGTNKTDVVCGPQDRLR
Sequence of human PD-1 protein (Q15116 25-167 limits assumed): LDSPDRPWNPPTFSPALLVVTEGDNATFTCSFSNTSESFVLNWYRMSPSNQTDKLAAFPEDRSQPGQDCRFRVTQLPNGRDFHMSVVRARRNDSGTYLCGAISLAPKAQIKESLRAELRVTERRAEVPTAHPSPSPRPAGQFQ

binding result [1]	binding result [2]	binding result [3]	binding result [4]	Binder
binds	binds	binds	binds	PD1(pembro)xCD40(non-blocker, ADI-55164) (bispecific antibody, human IgG1, kappa, also called BsAb-3; PD1(pembro)xCD40(ADI-55164)) heavy: not shown light: EIVLTQSPATLSLSPGERATLSCRASKGVSTSGYSYLHWYQQKPGQAPRLLIYLASYLESGVPARFSGSGSGTDFTLTISSLEPEDFAVYYCQHSRDLPLTFGGGTKVEIKRTVAAPSVFIFPPSDEQLKSGTASVVCLLNNFYPREAKVQWKVDNALQSGNSQESVTEQDSKDSTYSLSSTLTLSKADYEKHKVYACEVTHQGLSSPVTKSFNRGEC
binds	binds	binds	binds	PD1xCD40(blocker, ADI-55147) (bispecific antibody, human IgG1, kappa, also called BsAb-2) heavy: not shown light: EIVLTQSPATLSLSPGERATLSCRASKSVSTSGLNYVHWYQRKPGQAPRLLIYLGSYLDSGVPARFSGSGSGTDFTLTISSLEPEDFAVYYCQQSWELPLTFGGGTKVEIKRTVAAPSVFIFPPSDEQLKSGTASVVCLLNNFYPREAKVQWKVDNALQSGNSQESVTEQDSKDSTYSLSSTLTLSKADYEKHKVYACEVTHQGLSSPVTKSFNRGEC
